The values that follow come from patent publication US20190389910A1 (ORUM THERAPEUTICS, published 2019).

Where a chain is given by its changes, count along the chain named.

In assay [1] the target is human recombinant integrin αvβ6 (αv extracellular domain-acidic leucine zipper-His×6 with β6 extracellular domain-basic leucine zipper) (human) (UniProt P06756). Description: BLI (Octet), antibody captured on anti-human IgG Fc (AHC) biosensor, integrin αvβ6 3.1-100 nM as analyte, divalent cations. For orientation: Biolayer interferometry detects binding as a change in optical thickness at a sensor tip.
human recombinant integrin αvβ6 (αv extracellular domain-acidic leucine zipper-His×6 with β6 extracellular domain-basic leucine zipper) (human), sequence (P06756 other isoform, or with tags, fused parts or gaps, chain 1 of 2): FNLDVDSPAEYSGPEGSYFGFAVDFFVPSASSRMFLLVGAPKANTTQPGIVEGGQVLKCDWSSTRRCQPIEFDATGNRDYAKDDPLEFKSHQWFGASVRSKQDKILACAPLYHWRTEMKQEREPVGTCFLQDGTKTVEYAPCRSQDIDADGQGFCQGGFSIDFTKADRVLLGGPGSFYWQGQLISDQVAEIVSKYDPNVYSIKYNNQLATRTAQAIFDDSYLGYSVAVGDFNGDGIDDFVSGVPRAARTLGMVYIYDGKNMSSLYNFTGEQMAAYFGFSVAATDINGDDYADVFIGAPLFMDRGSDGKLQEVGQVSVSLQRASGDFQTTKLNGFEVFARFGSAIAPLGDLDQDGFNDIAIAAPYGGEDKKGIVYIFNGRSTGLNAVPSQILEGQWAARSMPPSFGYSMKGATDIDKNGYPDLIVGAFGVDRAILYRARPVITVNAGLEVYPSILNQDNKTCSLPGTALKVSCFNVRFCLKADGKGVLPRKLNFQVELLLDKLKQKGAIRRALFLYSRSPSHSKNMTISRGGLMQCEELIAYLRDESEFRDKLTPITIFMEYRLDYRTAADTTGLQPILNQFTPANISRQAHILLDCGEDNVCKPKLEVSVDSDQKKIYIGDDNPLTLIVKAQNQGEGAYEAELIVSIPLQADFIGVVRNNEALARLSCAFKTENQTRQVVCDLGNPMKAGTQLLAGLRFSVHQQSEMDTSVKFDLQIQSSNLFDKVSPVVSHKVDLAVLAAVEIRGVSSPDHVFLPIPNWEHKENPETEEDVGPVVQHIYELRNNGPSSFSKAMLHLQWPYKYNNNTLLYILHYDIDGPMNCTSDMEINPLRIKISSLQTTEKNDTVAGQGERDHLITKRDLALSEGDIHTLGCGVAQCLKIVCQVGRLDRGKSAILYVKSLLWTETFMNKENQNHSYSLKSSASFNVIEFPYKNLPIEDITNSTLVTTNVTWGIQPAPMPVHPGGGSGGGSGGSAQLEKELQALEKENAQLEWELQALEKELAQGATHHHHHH
human recombinant integrin αvβ6 (αv extracellular domain-acidic leucine zipper-His×6 with β6 extracellular domain-basic leucine zipper) (human), sequence (chain, as listed by the source, chain 2 of 2): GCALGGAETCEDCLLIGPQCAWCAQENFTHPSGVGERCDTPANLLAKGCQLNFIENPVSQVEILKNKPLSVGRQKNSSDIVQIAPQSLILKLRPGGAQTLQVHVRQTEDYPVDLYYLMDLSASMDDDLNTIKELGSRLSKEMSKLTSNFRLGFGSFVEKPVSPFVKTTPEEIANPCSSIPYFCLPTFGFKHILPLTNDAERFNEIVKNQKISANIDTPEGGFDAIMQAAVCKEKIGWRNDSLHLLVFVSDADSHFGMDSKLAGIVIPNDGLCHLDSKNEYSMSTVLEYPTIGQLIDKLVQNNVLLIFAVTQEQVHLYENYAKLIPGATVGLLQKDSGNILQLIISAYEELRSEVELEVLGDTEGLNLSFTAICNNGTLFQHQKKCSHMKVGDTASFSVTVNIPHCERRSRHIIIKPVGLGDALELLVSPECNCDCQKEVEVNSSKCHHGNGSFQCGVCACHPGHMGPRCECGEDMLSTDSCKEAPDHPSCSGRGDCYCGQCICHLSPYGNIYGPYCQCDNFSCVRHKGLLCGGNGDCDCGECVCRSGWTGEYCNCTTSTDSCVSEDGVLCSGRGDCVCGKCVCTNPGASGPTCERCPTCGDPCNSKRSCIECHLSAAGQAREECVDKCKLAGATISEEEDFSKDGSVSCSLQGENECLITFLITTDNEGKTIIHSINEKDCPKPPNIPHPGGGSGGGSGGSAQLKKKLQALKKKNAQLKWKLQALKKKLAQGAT

Assay [2] has as its target human recombinant integrin αvβ5 (αv extracellular domain-acidic leucine zipper-His×6 with β5 extracellular domain-basic leucine zipper) (human) (UniProt P06756). Description: BLI (Octet), antibody captured on anti-human IgG Fc (AHC) biosensor, integrin αvβ5 3.1-100 nM as analyte, divalent cations.
In assay [3] the target is human recombinant integrin αvβ6 (αv extracellular domain-acidic leucine zipper-His×6 with β6 extracellular domain-basic leucine zipper) (human) (UniProt P06756). In words: BLI (Octet), antibody on AHC biosensor, integrin αvβ6 as analyte.
In assay [4] the target is heparan sulfate proteoglycan (HSPG) expressed on HeLa cells. In words: cell-based or functional assay.

human recombinant integrin αvβ5 (αv extracellular domain-acidic leucine zipper-His×6 with β5 extracellular domain-basic leucine zipper) (human), sequence (P06756 other isoform, or with tags, fused parts or gaps, chain 1 of 2): as the sequence (P06756 other isoform, or with tags, fused parts or gaps, chain 1 of 2) above
human recombinant integrin αvβ5 (αv extracellular domain-acidic leucine zipper-His×6 with β5 extracellular domain-basic leucine zipper) (human), sequence (chain, as listed by the source, chain 2 of 2): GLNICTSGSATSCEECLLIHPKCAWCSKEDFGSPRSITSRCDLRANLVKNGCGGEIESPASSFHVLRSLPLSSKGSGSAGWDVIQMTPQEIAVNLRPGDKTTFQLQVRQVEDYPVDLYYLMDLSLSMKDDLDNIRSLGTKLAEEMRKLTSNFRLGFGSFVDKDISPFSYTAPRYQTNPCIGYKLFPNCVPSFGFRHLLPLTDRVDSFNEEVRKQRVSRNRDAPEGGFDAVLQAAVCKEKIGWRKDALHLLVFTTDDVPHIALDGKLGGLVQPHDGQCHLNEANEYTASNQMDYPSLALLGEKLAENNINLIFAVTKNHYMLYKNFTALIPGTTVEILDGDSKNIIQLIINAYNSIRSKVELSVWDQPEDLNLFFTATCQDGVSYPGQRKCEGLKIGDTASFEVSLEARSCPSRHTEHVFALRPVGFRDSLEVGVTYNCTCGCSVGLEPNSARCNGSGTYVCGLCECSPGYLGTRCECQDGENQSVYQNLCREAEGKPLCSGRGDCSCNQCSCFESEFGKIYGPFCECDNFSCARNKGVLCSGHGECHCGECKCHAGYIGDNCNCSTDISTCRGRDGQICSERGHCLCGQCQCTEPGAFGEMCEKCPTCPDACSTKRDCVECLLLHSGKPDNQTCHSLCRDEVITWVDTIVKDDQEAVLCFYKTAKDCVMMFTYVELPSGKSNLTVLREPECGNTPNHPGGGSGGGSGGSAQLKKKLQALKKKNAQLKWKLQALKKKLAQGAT

B1: 6#2-Ras03 (antibody, part only; not given: RT22 heavy chain, constant regions, V domains shown, not shown: another chain or arm of the molecule; a dimerising Fc or GST; large carriers; small tags and cut ends)
VL: HVEFPCTRRGDLFVLCEGSMGSSSNDIQMTQSPSSLSASVGDRVTITCKSSQSLLNSRDGKNYLAWYQQKPGKAPKLLIYWASTRESGVPSRFSGSGSGTDFTLTISSLQPEDFATYFCQQYWYWMYTFGQGTKVEIK
modifications: chain 1: disulfide bond Cys6-Cys16 closes the 6#2 cyclic peptide
B1: in assay [1], the dissociation constant (Kd) was determined as 0.722 nM, the koff came out at 0.000153 s⁻¹ and the association rate constant (kon) was 212000 M⁻¹ s⁻¹.

B2: 5#3-Ras03 (antibody, part only; not given: RT22 heavy chain, constant regions, V domains shown, not shown: another chain or arm of the molecule; a dimerising Fc or GST; large carriers; small tags and cut ends)
VL: SRDETCTPRGDTFAICMGSSSNDIQMTQSPSSLSASVGDRVTITCKSSQSLLNSRDGKNYLAWYQQKPGKAPKLLIYWASTRESGVPSRFSGSGSGTDFTLTISSLQPEDFATYFCQQYWYWMYTFGQGTKVEIK
modifications: chain 1: disulfide bond Cys6-Cys16 closes the 5#3 cyclic peptide
For the molecule B2, in assay [2], the dissociation constant (Kd) amounted to 4.88 nM, the off-rate constant (koff) is 0.000163 s⁻¹ and the on-rate constant (kon) turned out to be 33300 M⁻¹ s⁻¹.

B3: 5#4-Ras03 (antibody, part only; not given: RT22 heavy chain, constant regions, V domains shown, not shown: another chain or arm of the molecule; a dimerising Fc or GST; large carriers; small tags and cut ends)
VL: EHATNCTTRGDTFVVLCGLGMGSSSNDIQMTQSPSSLSASVGDRVTITCKSSQSLLNSRDGKNYLAWYQQKPGKAPKLLIYWASTRESGVPSRFSGSGSGTDFTLTISSLQPEDFATYFCQQYWYWMYTFGQGTKVEIK
modifications: chain 1: disulfide bond Cys6-Cys17 closes the 5#4 cyclic peptide
Turning to B3, in assay [2], the Kd worked out at 7.01 nM, the koff was found to be 0.000158 s⁻¹ and the association rate constant (kon) came to 22500 M⁻¹ s⁻¹.

B4: 6#4-Ras03 (antibody, part only; not given: RT22 heavy chain, light constant, V domains shown, not shown: another chain or arm of the molecule; a dimerising Fc or GST)
VL: ESFRPCQYRGDLFVLCFPSDMGSSSNDIQMTQSPSSLSASVGDRVTITCKSSQSLLNSRDGKNYLAWYQQKPGKAPKLLIYWASTRESGVPSRFSGSGSGTDFTLTISSLQPEDFATYFCQQYWYWMYTFGQGTKVEIK
modifications: chain 1: disulfide bond Cys6-Cys16 closes the cyclic peptide
Regarding B4, in assay [1], the dissociation constant (Kd) stood at 1.52 nM, the koff was 0.000265 s⁻¹ and the kon came to 175000 M⁻¹ s⁻¹.

B5: in4-Ras03 (antibody, part only; not given: RT22 heavy chain, light constant, V domains shown, not shown: another chain or arm of the molecule; a dimerising Fc or GST)
VL: DGVRQCRGDCFDGPLMGSSSNDIQMTQSPSSLSASVGDRVTITCKSSQSLLNSRDGKNYLAWYQQKPGKAPKLLIYWASTRESGVPSRFSGSGSGTDFTLTISSLQPEDFATYFCQQYWYWMYTFGQGTKVEIK
modifications: chain 1: disulfide bond Cys6-Cys10 closes the in4 cyclic peptide
In the case of B5, in assay [1], the equilibrium dissociation constant (Kd) was found to be 12.1 nM, the koff is 0.00703 s⁻¹ and the kon is 583000 M⁻¹ s⁻¹. For the same molecule, in assay [2], the Kd was determined as 2.06 nM, the koff was 0.000166 s⁻¹ and the kon was 80600 M⁻¹ s⁻¹.

B6: 6#6-Ras03 (antibody, part only; not given: RT22 heavy chain, light constant, V domains shown, not shown: another chain or arm of the molecule; a dimerising Fc or GST)
VL: LGPLPCQTRGDLFSLCHYMGSSSNDIQMTQSPSSLSASVGDRVTITCKSSQSLLNSRDGKNYLAWYQQKPGKAPKLLIYWASTRESGVPSRFSGSGSGTDFTLTISSLQPEDFATYFCQQYWYWMYTFGQGTKVEIK
modifications: chain 1: disulfide bond Cys6-Cys16 closes the cyclic peptide
Regarding B6, in assay [1], the equilibrium dissociation constant (Kd) was 0.843 nM, the dissociation rate constant (koff) was found to be 0.000182 s⁻¹ and the kon amounted to 216000 M⁻¹ s⁻¹. Also, the fold higher binding affinity than in4-Ras03 in assay [3] is 12 fold.

B7: 6#8-Ras03 (antibody, part only; not given: RT22 heavy chain, light constant, V domains shown, not shown: another chain or arm of the molecule; a dimerising Fc or GST)
VL: B6 VL with L1F, G2P, P3N, L4N, P5Q, T8H, S14A, H17A, Y18D
modifications: chain 1: disulfide bond Cys6-Cys16 closes the cyclic peptide
Regarding B7, in assay [1], the Kd amounted to 0.952 nM, the off-rate (koff) was determined as 0.000175 s⁻¹ and the kon amounted to 184000 M⁻¹ s⁻¹.

B8: TMab4-WYW (antibody, human IgG1, V domains shown)
VH: EVQLVESGGGLVQPGGSLRLSCAASGYTFTSYVMHWVRQAPGKGLEWVSAINPYNDGNYYADSVKGRFTISRDNSRKTLYLQMNSLRAEDTAVYYCARGAYKRGYAMDYWGQGTTVTVSS
VL: DLVMTQSPSSLSASVGDRVTITCKSSQSLFNSRTRKNYLAWYQQKPGKAPKLLIYWASTRESGVPSRFSGSGSGTDFTLTISSLQPEDFATYYCQQYWYWMYTFGQGTKVEIKR
In turn, B8 displayed a fluorescence intensity of antibody located in the cytoplasm (confocal microscopy, HeLa cells, 1 µM, 6 h) in assay [4] of 100%.

B9: CT03d (antibody, V domains shown)
VH: B8 VH
VL: B8 VL with F30L, R35G, N37T, Y93F
In turn, B9 came in with a fluorescence intensity of antibody located in the cytoplasm (confocal microscopy, HeLa cells, 1 µM, 6 h) in assay [4] of 26.3%.

B10: CT03e (antibody, V domains shown)
VH: B8 VH
VL: B8 VL with F30L, T34D, R35G, Y93F
In the case of B10, the fluorescence intensity of antibody located in the cytoplasm (confocal microscopy, HeLa cells, 1 µM, 6 h) in assay [4] amounted to 19.6%.

B11: CT03c (antibody, V domains shown)
VH: B8 VH
VL: B8 VL with F30L, R33D, T34D, K36N, N37T, A57L, T59Y, E61A, Y93F
For the molecule B11, the fluorescence intensity of antibody located in the cytoplasm (confocal microscopy, HeLa cells, 1 µM, 6 h) in assay [4] stood at 31.8%.

B12: CT03b (antibody, V domains shown)
VH: B8 VH
VL: B8 VL with F30L, T34D, R35G, K36N, N37T, A57L, T59Y, E61A, Y93F
In the case of B12, the fluorescence intensity of antibody located in the cytoplasm (confocal microscopy, HeLa cells, 1 µM, 6 h) in assay [4] amounted to 12.4%.

B13: CT03a (antibody, V domains shown)
VH: B8 VH
VL: B8 VL with F30L, Y93F
Regarding B13, the fluorescence intensity of antibody located in the cytoplasm (confocal microscopy, HeLa cells, 1 µM, 6 h) in assay [4] was 40.1%.

Usually Kd stands for the equilibrium constant for the complex coming apart. By koff is commonly meant the first-order rate constant of dissociation. Usually kon stands for a measure of how fast the partners come together.
